# Laboratory results as given in PMC8948145, “Piperonal synthase from black pepper (Piper nigrum) synthesizes a phenolic aroma compound, piperonal, as a CoA-independent catalysis” (Applied Biological Chemistry, 2022).
# Test system: O=C(O)/C=C/c1ccc2c(c1)OCO2
# Assay: GC-MS quantitation of piperonal, Michaelis-Menten fit
# Assay type: biochemical, Piper nigrum
# Conditions: 50 µM to 1.6 mM substrate; no ATP, CoA-SH or NAD+; pH of the kinetic assay not printed in main text
substance,measurement,value
"PnPNS (piperonal synthase; PnMCHL, 3,4-methylenedioxycinnamic acid hydratase-lyase) (Piper nigrum)",Km,317.2 µM
same,kcat,2.7 s⁻¹
